US20110104713A1, “PRODUCTS AND PROCESSES FOR MODULATING PEPTIDE-PEPTIDE BINDING DOMAIN INTERACTIONS” (priority 2002, published 2011)
Values belong to the binder of their own block, whether it stands above or below them. Non-standard residues stand in square brackets, D forms with d. No end group written: not given here. pT = C[C@@H](OP(=O)(O)O)[C@H](N)C(=O)O

Columns and labels:
[1] = biological target: T1, BRCTtide-7pS, GAAYDI-pS-… (Artificial Sequence); assay: isothermal titration calorimetry, peptide injected into GST-PTIP BRCT domains
T1 sequence (peptide, phosphoserine (pS) at position 7): GAAYDISQVFPFAKKK

[2] = biological target: T2, BRCTtide-7pT, GAAYDI-pT-… (Artificial Sequence); assay: as above
T2 sequence (peptide, phosphothreonine (pT) at position 7): GAAYDITQVFPFAKKK

[3] = biological target: degenerate peptide library MAXXXXpTXXXXAKKK (SEQ ID NO: 47); assay: GST-(BRCT)2 on glutathione beads, soluble degenerate library, Edman sequencing of bound peptides
[4] = biological target: degenerate peptide library GAXXXXpSXXFXXAYKKK (SEQ ID NO: 59); assay: as above
[5] = biological target: degenerate peptide library Met-Ala-X-X-X-X-pSer-X-X-X-X-X-Ala-Lys-Lys-Lys (SEQ ID NO: 58); assay: as above
[6] = biological target: degenerate peptide library GAXXXB(pS/pT)QJXXXAKKK (SEQ ID NO: 62); assay: as above
[7] = biological target: GST-Plk1 (full-length), prepared in SF9 cells (human)
[8] = biological target: degenerate peptide library MAXXXXSpTXXXXAKKK (SEQ ID NO: 48); assay: GST-PBD on glutathione beads, oriented peptide library screening
[9] = biological target: degenerate peptide library MAXXXXpTPXXXXAKKK (SEQ ID NO: 46); assay: as above
[10] = biological target: T1, BRCTtide-7pS, GAAYDI-pS-… (Artificial Sequence); assay: isothermal titration calorimetry, peptide injected into GST-BRCA1 BRCT domains

B1: GST-PTIP tandem BRCT domains (residues 550-757) (protein)
chain: TPELTPFVLFTGFEPVQVQQYIKKLYILGGEVAESAQKCTHLIASKVTRTVKFLTAISVVKHIVTPEWLEECFRCQKFIDEQNYILRDAEAEVLFSFSLEESLKRAHVSPLFKAKYFYITPGICPSLSTMKAIVECAGGKVLSKQPSFRKLMEHKQNSSLSEIILISCENDLHLCREYFARGIDVHNAEFVLTGVLTQTLDYESYKFN
Kd [1]: 280 nM
Kd [2]: 14300 nM
selectivity ratio, Ile at pThr-1 [3]: 2.1
selectivity ratio, Ile at pSer+5 [4]: 1.9
selectivity ratio, Phe at pSer+3 [5]: 2.3
selectivity ratio, Phe at (pSer/pThr)+3 [6]: 7

B3: GST-BRCA1 tandem BRCT domains (residues 1634-1863) (protein)
chain: REKPELTASTERVNKRMSMVVSGLTPEEFMLVYKFARKHHITLTNLITEETTHVVMKTDAEFVCERTLKYFLGIAGGKWVVSYFWVTQSIKERKMLNEHDFEVRGDVVNGRNHQGPKRARESQDRKIFRGLEICCYGPFTNMPTDQLEWMVQLCGASVVKELSSFTLGTGVHPIVVVQPDAWTEDNGFHAIGQMCEAPVVTREWVLDSVALYQCQELDTYLIPQIPHSHY
Kd [10]: 400 nM
selectivity ratio, Phe at pThr+3 [3]: 1.9
selectivity ratio, Phe at pSer+1 [4]: 2.1
selectivity ratio, Phe at pSer+3 [5]: 2.4
selectivity ratio, Phe at (pSer/pThr)+3 [6]: 7.5

B4: GST-Cdc5p PBD (Saccharomyces cerevisiae Cdc5p residues 357-705) (protein)
chain: EDIPEEQSLVNFKDCMEKSLLLESMSSDKIQRQKRDYISSIKSSIDKLEEYHQNRPFLPHSLSPGGTKQKYKEVVDIEAQRRLNDLAREARIRRAQQAVLRKELIATSTNVIKSEISLRILASECHLTLNGIVEAEAQYKMGGLPKSRLPKIKHPMIVTKWVDYSNKHGFSYQLSTEDIGVLFNNGTTVLRLADAEEFWYISYDDREGWVASHYLLSEKPRELSRHLEVVDFFAKYMKANLSRVSTFGREEYHKDDVFLRRYTRYKPFVMFELSDGTFQFNFKDHHKMAISDGGKLVTYISPSHESTTYPLVEVLKYGEIPGYPESNFREKLTLIKEGLKQKSTIVTVD
selectivity ratio, Pro at pThr+1 [8]: 1.4
selectivity ratio, Ser at pThr-1 [9]: 5.3

The next lines start with the values.

Plk1 kinase activity towards casein (32P incorporation, SDS-PAGE/autoradiography) [7]: 2.6 fold
Binder: MAGPMQS[pT]PLNGAKK [PoloBoxtide-optimal, MAGPMQ-S-pT-P-LNGAKK]

selectivity ratio, Pro at pThr+1 [8]: 1.7
selectivity ratio, Ser at pThr-1 [9]: 7.5
B2: GST-hPlk2 PBD (human Plk2 residues 355-685) (protein)
chain: HLSSPAKNFFKKAAAALFGGKKDKARYIDTHNRVSKEDEDIYKLRHDLKKTSITQQPSKHRTDEELQPPTTTVARSGTPAVENKQQIGDAIRMIVRGTLGSCSSSSECLEDSTMGSVADTVARVLRGCLENMPEADCIPKEQLSTSFQWVTKWVDYSNKYGFGYQLSDHTVGVLFNNGAHMSLLPDKKTVHYYAELGQCSVFPATDAPEQFISQVTVLKYFSHYMEENLMDGGDLPSVTDIRRPRLYLLQWLKSDKALMMLFNDGTFQVNFYHDHTKIIICSQNEEYLLTYINEDRISTTFRLTTLLMSGCSSELKNRMEYALNMLLQRCN

selectivity ratio, Pro at pThr+1 [8]: 1.6
selectivity ratio, Ser at pThr-1 [9]: 3
B5: GST-hPlk3 PBD (human Plk3 residues 335-646) (protein)
chain: TPPNPARSLFAKVTKSLFGRKKKSKNHAQERDEVSGLVSGLMRTSVGHQDARPEAPAASGPAPVSLVETAPEDSSPRGTLASSGDGFEEGLTVATVVESALCALRNCIAFMPPAEQNPAPLAQPEPLVWVSKWVDYSNKFGFGYQLSSRRVAVLFNDGTHMALSANRKTVHYNPTSTKHFSFSVGAVPRALQPQLGILRYFASYMEQHLMKGGDLPSVEEVEVPAPPLLLQWVKTDQALLMLFSDGTVQVNFYGDHTKLILSGWEPLLVTFVARNRSACTYLASHLRQLGCSPDLRQRLRYALRLLRDRSPA
